Assay [1] addresses T1, 6×His-MBP-tagged AnaCas9 (Cas9 from Actinomyces naeslundii) (Actinomyces naeslundii, UniProt J3F2B0 1-1101).
T1 construct: not shown: 6×His-MBP tag
T1 sequence: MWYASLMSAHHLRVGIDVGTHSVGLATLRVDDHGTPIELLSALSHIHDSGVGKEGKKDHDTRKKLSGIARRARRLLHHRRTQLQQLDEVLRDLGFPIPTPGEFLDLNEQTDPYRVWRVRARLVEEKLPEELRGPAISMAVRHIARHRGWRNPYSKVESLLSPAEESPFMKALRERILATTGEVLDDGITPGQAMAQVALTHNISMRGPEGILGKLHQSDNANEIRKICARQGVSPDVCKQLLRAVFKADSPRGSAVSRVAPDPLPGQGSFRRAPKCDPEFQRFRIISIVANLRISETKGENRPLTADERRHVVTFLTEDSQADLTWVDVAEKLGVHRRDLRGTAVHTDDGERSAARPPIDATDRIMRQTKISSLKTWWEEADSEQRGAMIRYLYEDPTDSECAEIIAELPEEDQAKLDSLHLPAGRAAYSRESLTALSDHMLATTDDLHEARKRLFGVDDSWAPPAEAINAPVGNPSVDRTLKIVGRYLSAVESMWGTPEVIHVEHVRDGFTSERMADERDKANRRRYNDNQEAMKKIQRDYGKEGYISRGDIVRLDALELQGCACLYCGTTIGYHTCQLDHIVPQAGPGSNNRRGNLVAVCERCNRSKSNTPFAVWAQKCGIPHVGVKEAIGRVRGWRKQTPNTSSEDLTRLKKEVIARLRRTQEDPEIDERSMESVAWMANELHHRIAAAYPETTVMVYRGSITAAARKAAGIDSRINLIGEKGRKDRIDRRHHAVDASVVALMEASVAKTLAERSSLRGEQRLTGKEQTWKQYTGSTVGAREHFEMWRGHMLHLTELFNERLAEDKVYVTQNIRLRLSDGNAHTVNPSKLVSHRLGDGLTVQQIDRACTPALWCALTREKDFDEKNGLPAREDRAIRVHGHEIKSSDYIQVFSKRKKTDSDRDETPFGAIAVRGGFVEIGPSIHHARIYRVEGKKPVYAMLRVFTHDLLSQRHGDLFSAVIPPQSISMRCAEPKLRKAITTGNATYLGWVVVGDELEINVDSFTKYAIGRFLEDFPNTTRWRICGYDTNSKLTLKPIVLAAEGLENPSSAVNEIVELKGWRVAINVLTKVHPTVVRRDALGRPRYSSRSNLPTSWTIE
Put plainly: nickel affinity pulldown with tagged AnaCas9, SDS-PAGE/Coomassie.

Assay [2] has as its target T2, 6×His-tagged NmeCas9 (Neisseria meningitidis Cas9) (Neisseria meningitidis, UniProt C9X1G5 1-1082).
T2 sequence: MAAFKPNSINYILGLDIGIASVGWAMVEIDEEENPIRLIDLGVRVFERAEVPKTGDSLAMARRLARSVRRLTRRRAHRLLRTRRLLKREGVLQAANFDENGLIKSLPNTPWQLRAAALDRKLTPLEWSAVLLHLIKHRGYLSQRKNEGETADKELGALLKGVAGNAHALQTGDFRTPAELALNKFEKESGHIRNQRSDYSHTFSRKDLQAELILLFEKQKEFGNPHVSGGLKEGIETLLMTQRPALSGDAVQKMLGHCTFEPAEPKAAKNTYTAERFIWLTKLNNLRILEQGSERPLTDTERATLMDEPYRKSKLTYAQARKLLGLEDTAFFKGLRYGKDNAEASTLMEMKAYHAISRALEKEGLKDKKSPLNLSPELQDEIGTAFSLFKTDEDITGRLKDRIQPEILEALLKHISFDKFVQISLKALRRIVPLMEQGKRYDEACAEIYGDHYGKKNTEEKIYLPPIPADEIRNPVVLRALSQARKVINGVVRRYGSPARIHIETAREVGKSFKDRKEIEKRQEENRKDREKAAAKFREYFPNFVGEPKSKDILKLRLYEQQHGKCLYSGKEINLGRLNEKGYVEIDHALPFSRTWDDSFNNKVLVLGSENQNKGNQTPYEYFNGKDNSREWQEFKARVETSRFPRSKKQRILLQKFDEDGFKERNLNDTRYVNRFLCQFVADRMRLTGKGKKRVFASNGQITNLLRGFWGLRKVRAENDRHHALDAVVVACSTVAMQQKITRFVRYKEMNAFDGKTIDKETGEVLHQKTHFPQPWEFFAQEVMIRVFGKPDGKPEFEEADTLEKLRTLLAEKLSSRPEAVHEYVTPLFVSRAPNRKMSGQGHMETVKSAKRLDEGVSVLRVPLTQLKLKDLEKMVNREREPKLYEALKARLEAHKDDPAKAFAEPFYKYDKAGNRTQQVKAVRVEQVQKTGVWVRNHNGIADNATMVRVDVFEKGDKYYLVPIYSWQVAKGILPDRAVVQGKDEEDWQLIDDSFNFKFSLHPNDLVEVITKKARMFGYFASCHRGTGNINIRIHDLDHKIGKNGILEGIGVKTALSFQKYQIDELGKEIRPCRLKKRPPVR
Nature of the assay: cell-based or functional assay.

The target in assay [3] is T2, 6×His-tagged NmeCas9 (Neisseria …). Nature of the assay: nickel affinity pulldown with 6×His-NmeCas9:sgRNA, SDS-PAGE/Coomassie.

B1: AcrIIC1Nme (Neisseria meningitidis Acr #1) (other)
chain: MANKTYKIGKNAGYDGCGLCLAAISENEAIKVKYLRDICPDYDGDDKAEDWLRWGTDSRVKAAALEMEQYAYTSVGMASCWEFVEL
notes: also called Acr1Nm
Consider B1, for which the binding result in assay [1] was “no binding”. Besides, the “inhibition of in vitro DNA cleavage by NmeCas9, anti-CRISPR at 1:1 molar ratio” value in assay [2] was ~50%.

B2: FLAG-AcrIIC3Nme (AcrIIC3Nme with an N-terminal FLAG tag) (other)
chain: DYKDDDDKMAFKRAIIFTSFNGFEKVSRTEKRRLAKIINARVSIIDEYLRAKDTNASLDGQYRAFLFNDESPAMTEFLAKLKAFAESCTGISIDAWEIEESEYVRLPVERRDFLAAANGKEIFKI
notes: also called 6xHis-TEV-FLAG-AcrIIC3Nme (before TEV cleavage)
As to B2, the binding result in assay [1] is given as “no binding”. The “inhibition of in vitro DNA cleavage by NmeCas9, anti-CRISPR at 1:1 molar ratio” value in assay [2] was ~50%.

B3: AcrE2 (type I-E anti-CRISPR from Pseudomonas phage JBD88a) (other)
chain: MANTYLIDPRKNNDNSGERFTVDAVDITAAAKSAAQQILGEEFEGLVYRETGESNGSGMFQAYHHLHGTNRTETTVGYPFHVMEL
notes: also called Acr88a-32; Acr88-32
As for B3, the binding result in assay [3] was “no binding”.

These data come from patent US20230167426A1 (UNIVERSITY OF MASSACHUSETTS, published 2023).
